The record followed here is article PMC6895269.

Series [1] concerns Rtf1 HMD74-184 (histone modification domain) (Saccharomyces cerevisiae). In words: EMSA. As to conditions: 50 mM Tris-HCl pH 7.5, 150 mM NaCl, 2 mM arginine, 0.01% CHAPS, 0.01% NP-40, 1 uM BSA, 3 nM nucleosome, 30 min on ice, 4-12% Tris-glycine native PAGE.
The target in series [2] is wild-type X. laevis nucleosome (X. laevis). Description: native gel or EMSA; 3 nM nucleosomes with increasing recombinant HMD, 30 min on ice, 50 mM Tris-HCl pH 7.5, 150 mM NaCl, 2 mM arginine, 0.01% CHAPS, 0.01% NP-40, 1 μM BSA; 4-12% native PAGE, SYBR Green; Kd by non-linear least squares regression. Background: Mobility shift assays separate free from complexed probe on a gel.

The target in series [3] is acidic patch mutant X. laevis nucleosome (H2A E61A, E64A, D90A, E92A) (X. laevis). Described as above.

The substance “acidic patch mutant X. laevis nucleosome (H2A E61A, E64A, D90A, E92A)” registered a Kd in series [1] (histone H2A E61A;E64A;D90A;E92A) of 0.25 µM.
With wild-type X. laevis nucleosome, the equilibrium dissociation constant (Kd) in series [1] (wild-type histone octamer) amounted to 0.1 µM.
For “recombinant HMD_(74-184) (Rtf1 histone modification domain) (from UniProt P53064 74-184) (domain or fragment)”, the Kd in series [2] came to 0.1 µM; in series [3], 0.25 µM.

Broadly, the Kd is the free concentration of one partner at which half of the binding sites on the other are occupied at equilibrium, for simple one-to-one binding.
